Here are results for 9 variants from IntAct's records for PubMed 29892012.

The labels stand for the following.
B1: E3 ubiquitin-protein ligase LNX (Homo sapiens), Q8TBB1 (parent)
chain: MNQPESANDPEPLCAVCGQAHSLEENHFYSYPEEVDDDLICHICLQALLDPLDTPCGHTYCTLCLTNFLVEKDFCPMDRKPLVLQHCKKSSILVNKLLNKLLVTCPFREHCTQVLQRCDLEHHFQTSCKGASHYGLTKDRKRRSQDGCPDGCASLTATAPSPEVSAAATISLMTDEPGLDNPAYVSSAEDGQPAISPVDSGRSNRTRARPFERSTIRSRSFKKINRALSVLRRTKSGSAVANHADQGRENSENTTAPEVFPRLYHLIPDGEITSIKINRVDPSESLSIRLVGGSETPLVHIIIQHIYRDGVIARDGRLLPGDIILKVNGMDISNVPHNYAVRLLRQPCQVLWLTVMREQKFRSRNNGQAPDAYRPRDDSFHVILNKSSPEEQLGIKLVRKVDEPGVFIFNVLDGGVAYRHGQLEENDRVLAINGHDLRYGSPESAAHLIQASERRVHLVVSRQVRQRSPDIFQEAGWNSNGSWSPGPGERSNTPKPLHPTITCHEKVVNIQKDPGESLGMTVAGGASHREWDLPIYVISVEPGGVISRDGRIKTGDILLNVDGVELTEVSRSEAVALLKRTSSSIVLKALEVKEYEPQEDCSSPAALDSNHNMAPPSDWSPSWVMWLELPRCLYNCKDIVLRRNTAGSLGFCIVGGYEEYNGNKPFFIKSIVEGTPAYNDGRIRCGDILLAVNGRSTSGMIHACLARLLKELKGRITLTIVSWPGTFL
partner: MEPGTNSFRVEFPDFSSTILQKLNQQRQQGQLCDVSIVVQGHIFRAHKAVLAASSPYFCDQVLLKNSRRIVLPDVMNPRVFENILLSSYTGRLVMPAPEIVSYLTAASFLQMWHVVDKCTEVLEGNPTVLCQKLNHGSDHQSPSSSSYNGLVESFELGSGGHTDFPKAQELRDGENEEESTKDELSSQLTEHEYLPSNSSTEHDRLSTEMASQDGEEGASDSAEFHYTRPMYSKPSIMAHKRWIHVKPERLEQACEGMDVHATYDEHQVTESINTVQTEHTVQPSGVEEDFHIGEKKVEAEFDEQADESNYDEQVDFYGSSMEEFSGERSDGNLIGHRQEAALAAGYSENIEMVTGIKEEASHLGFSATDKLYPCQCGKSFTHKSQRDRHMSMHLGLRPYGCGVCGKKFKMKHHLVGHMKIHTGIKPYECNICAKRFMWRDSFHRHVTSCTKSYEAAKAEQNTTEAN
B2: E3 ubiquitin-protein ligase LNX (Homo sapiens), Q8TBB1 (parent)
chain: B1 chain
partner: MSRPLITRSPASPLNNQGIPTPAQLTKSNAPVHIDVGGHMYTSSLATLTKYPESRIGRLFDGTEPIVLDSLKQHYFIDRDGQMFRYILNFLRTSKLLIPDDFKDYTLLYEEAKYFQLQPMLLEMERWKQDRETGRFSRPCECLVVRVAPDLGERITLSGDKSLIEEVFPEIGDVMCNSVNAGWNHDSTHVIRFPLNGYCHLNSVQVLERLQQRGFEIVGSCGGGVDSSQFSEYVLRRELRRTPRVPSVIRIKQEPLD
B3: Isoform 2 of Synaptoporin (Homo sapiens), Q8TBG9-2 (parent)
chain: MDPVSQLASAGTFRVLKEPLAFLRALELLFAIFAFATCGGYSGGLRLSVDCVNKTESNLSIDIAFAYPFRLHQVTFEVPTCEGKERQKLALIGDSSSSAEFFVTVAVFAFLYSLAATVVYIFFQNKYRENNRGPLIDFIVTVVFSFLWLVGSSAWAKGLSDVKVATDPKEVLLLMSACKQPSNKCMAIHSPVMSSLNTSVVFGFLNFILWAGNIWFVFKETGWHSSGQRYLSDPMEKHSSSYNQGGYNQDSYGSSSGYSQQASLGPTSDEFGQQPTGPTSFTNQI
partner: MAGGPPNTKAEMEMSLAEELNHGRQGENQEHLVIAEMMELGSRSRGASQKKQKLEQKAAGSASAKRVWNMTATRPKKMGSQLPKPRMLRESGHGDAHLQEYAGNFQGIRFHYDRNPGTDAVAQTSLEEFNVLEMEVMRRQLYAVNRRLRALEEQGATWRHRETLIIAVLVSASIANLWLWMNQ
B4: E3 ubiquitin-protein ligase LNX (Homo sapiens), Q8TBB1 (parent)
chain: B1 chain
partner: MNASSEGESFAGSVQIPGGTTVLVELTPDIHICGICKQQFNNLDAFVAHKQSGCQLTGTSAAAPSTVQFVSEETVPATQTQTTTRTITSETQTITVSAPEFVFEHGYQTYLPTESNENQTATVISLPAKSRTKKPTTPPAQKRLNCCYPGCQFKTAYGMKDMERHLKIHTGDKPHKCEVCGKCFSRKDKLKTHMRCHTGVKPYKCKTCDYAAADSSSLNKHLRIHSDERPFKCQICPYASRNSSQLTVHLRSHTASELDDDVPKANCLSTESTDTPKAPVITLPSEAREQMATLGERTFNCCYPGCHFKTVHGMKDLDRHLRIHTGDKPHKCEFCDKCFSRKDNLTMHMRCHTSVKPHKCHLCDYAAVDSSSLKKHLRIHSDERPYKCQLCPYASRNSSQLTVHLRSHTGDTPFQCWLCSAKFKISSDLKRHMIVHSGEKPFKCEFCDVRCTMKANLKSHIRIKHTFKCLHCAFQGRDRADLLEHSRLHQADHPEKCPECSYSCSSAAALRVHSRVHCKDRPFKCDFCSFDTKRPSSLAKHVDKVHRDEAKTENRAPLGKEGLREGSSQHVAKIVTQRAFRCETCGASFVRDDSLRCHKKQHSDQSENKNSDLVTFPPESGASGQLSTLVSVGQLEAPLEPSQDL
B5: Ras GTPase-activating protein-binding protein 2 (Homo sapiens), Q9UN86 (parent)
chain: MVMEKPSPLLVGREFVRQYYTLLNKAPEYLHRFYGRNSSYVHGGVDASGKPQEAVYGQNDIHHKVLSLNFSECHTKIRHVDAHATLSDGVVVQVMGLLSNSGQPERKFMQTFVLAPEGSVPNKFYVHNDMFRYEDEVFGDSEPELDEESEDEVEEEQEERQPSPEPVQENANSGYYEAHPVTNGIEEPLEESSHEPEPEPESETKTEELKPQVEEKNLEELEEKSTTPPPAEPVSLPQEPPKAFSWASVTSKNLPPSGTVSSSGIPPHVKAPVSQPRVEAKPEVQSQPPRVREQRPRERPGFPPRGPRPGRGDMEQNDSDNRRIIRYPDSHQLFVGNLPHDIDENELKEFFMSFGNVVELRINTKGVGGKLPNFGFVVFDDSEPVQRILIAKPIMFRGEVRLNVEEKKTRAARERETRGGGDDRRDIRRNDRGPGGPRGIVGGGMMRDRDGRGPPPRGGMAQKLGSGRGTGQMEGRFTGQRR
B6: E3 ubiquitin-protein ligase LNX (Homo sapiens), Q8TBB1 (parent)
chain: B1 chain
partner: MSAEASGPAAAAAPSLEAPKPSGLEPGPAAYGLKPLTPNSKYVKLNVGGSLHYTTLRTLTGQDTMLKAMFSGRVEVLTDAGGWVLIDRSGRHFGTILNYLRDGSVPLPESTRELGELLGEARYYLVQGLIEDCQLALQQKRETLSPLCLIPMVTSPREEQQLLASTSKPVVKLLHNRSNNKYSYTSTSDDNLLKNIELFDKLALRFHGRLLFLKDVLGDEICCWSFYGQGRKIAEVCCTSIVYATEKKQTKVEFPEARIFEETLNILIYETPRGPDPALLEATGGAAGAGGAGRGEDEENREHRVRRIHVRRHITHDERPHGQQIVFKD
B7: E3 ubiquitin-protein ligase LNX (Homo sapiens), Q8TBB1 (parent)
chain: B1 chain
partner: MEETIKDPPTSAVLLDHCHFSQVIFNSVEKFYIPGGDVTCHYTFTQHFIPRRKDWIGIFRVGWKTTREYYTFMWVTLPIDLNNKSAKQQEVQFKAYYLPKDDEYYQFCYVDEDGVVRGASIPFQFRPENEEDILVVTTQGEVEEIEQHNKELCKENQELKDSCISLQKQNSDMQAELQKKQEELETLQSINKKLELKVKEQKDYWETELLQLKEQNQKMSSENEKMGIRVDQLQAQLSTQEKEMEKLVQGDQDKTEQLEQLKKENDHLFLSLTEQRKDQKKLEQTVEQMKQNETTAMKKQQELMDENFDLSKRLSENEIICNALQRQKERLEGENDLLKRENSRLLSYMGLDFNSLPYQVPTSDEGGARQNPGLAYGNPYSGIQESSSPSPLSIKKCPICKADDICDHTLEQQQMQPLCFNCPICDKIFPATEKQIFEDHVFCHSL
B8: E3 ubiquitin-protein ligase LNX (Homo sapiens), Q8TBB1 (parent)
chain: B1 chain
partner: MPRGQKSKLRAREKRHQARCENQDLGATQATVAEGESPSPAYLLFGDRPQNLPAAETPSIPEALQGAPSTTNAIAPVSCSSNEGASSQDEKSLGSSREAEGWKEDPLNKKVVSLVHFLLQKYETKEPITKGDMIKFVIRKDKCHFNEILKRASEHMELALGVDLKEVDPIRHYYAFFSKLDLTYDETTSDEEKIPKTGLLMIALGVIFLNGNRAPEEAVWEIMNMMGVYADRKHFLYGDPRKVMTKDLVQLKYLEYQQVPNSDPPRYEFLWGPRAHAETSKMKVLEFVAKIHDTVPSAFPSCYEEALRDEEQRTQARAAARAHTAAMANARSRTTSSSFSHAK
B9: E3 ubiquitin-protein ligase LNX (Homo sapiens), Q8TBB1 (parent)
chain: B1 chain
partner: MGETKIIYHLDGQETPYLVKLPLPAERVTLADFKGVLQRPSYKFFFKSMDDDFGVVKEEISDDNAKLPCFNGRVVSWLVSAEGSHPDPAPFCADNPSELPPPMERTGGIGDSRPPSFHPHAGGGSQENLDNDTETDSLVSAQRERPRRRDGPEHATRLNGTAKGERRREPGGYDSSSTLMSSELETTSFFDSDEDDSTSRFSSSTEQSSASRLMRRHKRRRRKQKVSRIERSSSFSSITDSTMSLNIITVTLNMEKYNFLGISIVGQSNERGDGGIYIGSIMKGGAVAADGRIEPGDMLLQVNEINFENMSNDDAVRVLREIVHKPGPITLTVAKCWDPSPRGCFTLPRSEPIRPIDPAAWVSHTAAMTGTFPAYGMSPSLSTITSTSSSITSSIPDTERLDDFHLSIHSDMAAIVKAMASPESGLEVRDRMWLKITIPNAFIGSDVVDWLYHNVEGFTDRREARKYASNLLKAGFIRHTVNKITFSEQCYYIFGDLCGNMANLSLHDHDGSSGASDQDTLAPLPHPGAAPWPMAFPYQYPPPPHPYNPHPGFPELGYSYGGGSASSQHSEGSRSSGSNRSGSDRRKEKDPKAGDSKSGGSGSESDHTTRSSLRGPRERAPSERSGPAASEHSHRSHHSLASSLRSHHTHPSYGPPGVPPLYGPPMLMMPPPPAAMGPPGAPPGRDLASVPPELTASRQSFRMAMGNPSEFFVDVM

Variants of B1 are the subject of one test. The settings on record: with zbt43_human ZBTB43, O43298.
As for E295K, the “effect of a mutation on the interaction” value is recorded as “disrupting interaction strength”.

The next test covers variants of B2. The settings on record: with kctd1_human KCTD1, Q719H9.
As to E295K, the “effect of a mutation on the interaction” value is given as “disrupting interaction strength”.

Variants of B3 are the subject of another test. The settings on record: with fate1_human FATE1, Q969F0.
As to A115P, the “effect of a mutation on the interaction” value was “with no effect”.

The variants in another test derive from B4. The following applies: with zf64b_human ZFP64, Q9NTW7.
In the case of E295K, the “effect of a mutation on the interaction” value was “disrupting interaction strength”.

The next test covers variants of B5. The settings on record: with ubp10_human USP10, Q14694.
Sequence of ubp10_human USP10, Q14694 (Q14694 whole entry): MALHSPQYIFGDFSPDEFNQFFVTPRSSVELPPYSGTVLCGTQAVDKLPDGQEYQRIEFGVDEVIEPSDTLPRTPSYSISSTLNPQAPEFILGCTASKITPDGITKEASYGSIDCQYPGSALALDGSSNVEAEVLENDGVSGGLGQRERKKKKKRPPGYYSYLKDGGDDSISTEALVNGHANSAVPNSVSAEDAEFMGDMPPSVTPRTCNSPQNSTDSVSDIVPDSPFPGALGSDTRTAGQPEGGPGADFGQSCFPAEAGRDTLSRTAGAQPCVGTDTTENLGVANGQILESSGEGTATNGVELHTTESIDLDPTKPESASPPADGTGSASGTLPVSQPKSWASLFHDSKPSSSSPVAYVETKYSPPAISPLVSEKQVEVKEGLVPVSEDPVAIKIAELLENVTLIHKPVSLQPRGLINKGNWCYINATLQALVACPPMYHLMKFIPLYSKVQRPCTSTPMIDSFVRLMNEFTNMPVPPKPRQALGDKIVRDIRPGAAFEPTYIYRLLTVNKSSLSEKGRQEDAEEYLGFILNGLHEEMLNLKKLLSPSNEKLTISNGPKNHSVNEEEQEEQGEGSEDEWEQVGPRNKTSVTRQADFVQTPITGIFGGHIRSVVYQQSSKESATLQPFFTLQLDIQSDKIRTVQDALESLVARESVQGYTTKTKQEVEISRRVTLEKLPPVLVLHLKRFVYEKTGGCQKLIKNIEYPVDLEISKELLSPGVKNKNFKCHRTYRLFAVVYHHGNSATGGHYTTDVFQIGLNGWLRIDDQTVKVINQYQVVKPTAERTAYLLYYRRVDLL
On to MVMEKPSPLLVGREFVRQYYTLLNKAPEYLHRFYGRNSSYVHGGVDASGKPQEAVYGQNDIHHKVLSLNFSECHTKIRHVDAHATLSDGVVVQVMGLLSNSGQPERKFMQTFVLAPEGSVPNKFYVHNDMFRYEDEVFGDSEPELDEESEDEVEEEQEERQPSPEPVQENANSGYYEAHPVTNGIEEPLEESSHEPEPEPESETKTEEPKPQVEEKNLEELEEKSTTPPPAEPVSLPQEPPKAFSWASVTSKNLPPSGTVSSSGIPPHVKAPVSQPRVEAKPEVQSQPPRVREQRPRERPGFPPRGPRPGRGDMEQNDSDNRRIIRYPDSHQLFVGNLPHDIDENELKEFFMSFGNVVELRINTKGVGGKLPNFGFVVFDDSEPVQRILIAKPIMFRGEVRLNVEEKKTRAARERETRGGGDDRRDIRRNDRGPGGPRGIVGGGMMRDRDGRGPPPRGGMAQKLGSGRGTGQMEGRFTGQRR [L209P], for which the “effect of a mutation on the interaction” value is reported as “with no effect”.

The variants in the next test derive from B6. The following applies: with bacd1_human KCTD13, Q8WZ19.
With E295K, the “effect of a mutation on the interaction” value is on record as “disrupting interaction strength”.

The next test covers variants of B7. The settings on record: with caco2_human CALCOCO2, Q13137.
As to E295K, the “effect of a mutation on the interaction” value was “disrupting interaction strength”.

Another test covers variants of B8. The following applies: with magbi_human MAGEB18, Q96M61.
Regarding E295K, the “effect of a mutation on the interaction” value is on record as “disrupting interaction strength”.

Another test covers variants of B9. The following applies: with dvl3_human DVL3, Q92997.
For the variant E295K, the “effect of a mutation on the interaction” value is “disrupting interaction strength”.
